Reference: the domain aggregation screens of Martell et al. (2025)

Assay: soluble fraction after stress (log2 fold change); higher = more stays soluble; pooled small domains, quantitative proteomics
Details: stress: pH 4
In short: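 Custom libraries of small protein domains were pooled and exposed to pH 4. High-throughput quantitative proteomics then measured the log2 fold change in the amount of each domain still soluble, with higher values meaning more stayed soluble. This soluble-fraction fold change stands for aggregation propensity.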

Row | Sequence | soluble fraction (log2)
1 | HMDFNNQLKRIRESNGLTQEQLAKILNVSRQSISSWEVGRNFPDLEMIVIISKEFNISLDQLIMG | -1.03
2 | HMDFQTDVFISRFAELKKESGETNKDLQDVFELSLSALINYQTGKRIPDIAFLHKLAQHFGVSADYLLGLS | -0.6
3 | HMDFRQALNTSADSDANKVALLESIVKGKYVSSTVNLLRRVITLRRGRSIDATLAAYSHYVSIR | 0.385
4 | HMDFSVTIKGTSFPVMVSLKKMKQVRLKVFPSGEIKLSAPVGTPEKWIVEYLNDKMSWIEEKMDLFVQ | -0.395
5 | HMDFTMSEIQTAMAALPRGYRTVVQLYLVDGYSHKEIAEMLGVDVNTSKSQLSRGRKQLQAFLAAMS | -0.602
6 | HMDFYIVLGVDRAASVSDVKRAYRRLARKYHPDINPGDREAEAFFLRVTEAYETLIDPDRRQDYDVNG | -1.31
7 | HMDFYPARVKWFNKSKGFGFANIFKSNDDIFLHIETLKRSGLSDLETGEAIVLTVTEGPRGKMADTILTWD | -0.411
8 | HMDGDFGMNLDWQPSEHFPTLARQAGIPADHITAEAIAEFRSYWIGQGKAMTQYQWDHKLLTNLKATKTR | 0.106
9 | HMDGEAQTYVEYGKWFPADLPLEAVRQLADGVPVTKELVAALNPRRSEWEEIKAGLDKIGYPNELL | -0.567
10 | HMDGEITLYKVVGYIKASDFDDKKNGFVIADDYITKRQAEDTMYEWKRKKTYPYLEIKEYKGKDPYK | -0.0464
11 | HMDGLAEQLFNILREELESGDYKPGQKLMSESALAQKYGVSRLTVRAAIARLSALDYVETRNGEGSFVKKR | -0.0881
12 | HMDGLDFIINENGKIANINEEGELLAKGENIMLGYYKDSISTNNTINNGWLHTGDIAKIDNDGFIYL | -0.123
13 | HMDGMNEELYQKFFALVGNPDEGKRISQAKAAQALGYSSAVVSAYKNRTYNGNIKAFEDAVQAWLKREERR | 0.141
14 | HMDGPELYESMKAIVPDQLDRTIFLTGGAYTPRAQEFLARVPNQQMEKPFEFEALRSLLARLT | -0.199
15 | HMDGTEVTTEPPGAQVEYEGKQFGPTPARIPGLVAGKSLHITLPGYLEVKPKIKAVPKDGEPLSFTLTAI | 0.224
16 | HMDGVEVVTKPAGAQIEFAGKSYGPSPVHIPGLVAGSQLILRLPGFQAATVRLRTAPDKSKALEYTLQPA | -0.0155
17 | HMDGVLVYKEGMTVADMATGLGKTIAQVVMKLMQLGIMANQNQSVDRETVELVALDFGYELKD | -1.39
18 | HMDGVSAEAVKSHIKTLIDGEGAKILSDDTLVDLLNAKGFDIARRTVAKYREAMGIGSSVQRRRQKKMG | -0.0273
19 | HMDGYLQLASKKNELITQLKTPPKPKRLFKDFEDRVYLITEYKVFVVSIFQNEFRLRPVNKDDFYRYTT | -0.134
20 | HMDGYTAVDKAVSDQYYTKENQLYFVSMGNFFSLGAKKIEGADISSFQILTTEYARDLQHLYFNGKV | -0.367
21 | HMDHFFSKYDSIVNHTVQKKETLFGISKKYGLTINEVIKFNPGIQIDKLKRRSVLIIPLMKKN | -0.0453
22 | HMDHKSALQELLAPRGLQPSYRLVEEAGPAHARVFTSEVSVDGVARGSGTGTTIKMSEQAAAREALASLG | 0.318
23 | HMDHKSQLQEWAQSTLGETPRYVTIAETGPDHDKELTVELIIGRKSYSIAKGKSKKQAEQSAARIALGLLM | -0.504
24 | HMDHKSSYWSVKEANLFPELLKQFGSQWSLISDKLGTKSTTMVRNYYQRNAAQLGWKSVVEEADFKRNA | 0.0284
25 | HMDHTYKHIELTGSSEKGIEEAVQNALAKASESVQNMRWLEVTDTRGHIEDGRVAHWQVTVKVGFTL | 0.22
26 | HMDHVEDRMVLEVVLKKLTEEERRIVMLHAVSGLKHREIAKALDIPLSTVLSKYKRTLKKLEAYLMEME | -0.936
27 | HMDIADKLTKREFEIFIAIAMNKSRFDIANELGLSAKTVSNGLTVIKRKLNAVPSQFSAIAAKHGYIG | -0.408
28 | HMDIAYFSNAELNDAFIQFLNMRQEAGKQLNGYQIQILTEKLERVADTDEDRISAVKNAIAGGWSNFYPPK | -0.366
29 | HMDIDASEVRGIISQYINEPDGRVSYILETIQKKYRYLPEEAIRIVAQELEVPLTQLFGVATFYAAFSL | 0.0192
30 | HMDIDLNTIKKITLDDIHAFLSYLTTTYHSKAATRARKASSIRVFFNYLSAKANLIEVNPAQNLETPKLD | 0.0886
